Assay results reported in paper PMC5625350 (Nature structural & molecular biology, 2017).
Substitutions are numbered along the chain they refer to. In names and notes the source's numbering stands.

Assays:
crystal structure = molecular target: the molecule itself; test: crystal structure
SEC = molecular target: the molecule itself; test: SEC
cross-linking = molecular target: the molecule itself; test: cross-linking
SAXS = molecular target: the molecule itself; test: SAXS
[1] = molecular target: Rad50 WT (in MRN);Mre11;Nbs1 (Homo sapiens;Homo sapiens;Homo sapiens, UniProt Q92878;P49959;O60934 1-1312;1-708;1-754, ||); test: EMSA
[2] = molecular target: Rad50 dCC (in MRN);Mre11;Nbs1 (Homo sapiens;Homo sapiens;Homo sapiens, UniProt Q92878;P49959;O60934 1-1312;1-708;1-754, del614-668;del702-750||); test: EMSA

B1: human Rad50 hook and coiled-coil domain, HsRad50HCC182 (residues 585 to 766) (domain or fragment, UniProt Q92878 585-766, looked up)
chain: KEINQTRDRLAKLNKELASSEQNKNHINNELKRKEEQLSSYEDKLFDVCGSQDFESDLDRLKEEIEKSSKQRAMLAGATAVYSQFITQLTDENQSCCPVCQRVFQTEAELQEVISDLQSKLRLAPDKLKSTESELKKKEKRRDEMLGLVPMRQSIIDLKEKEIPELRNKLQNVNRDIQRLKN
binding result (crystal structure): binds

B2: Rad50ΔCC (Rad50HCC182 with residues 614-668 and 702-750 deleted) (domain or fragment, human, UniProt Q92878 585-766, looked up)
chain: KEINQTRDRLAKLNKELASSEQNKNHINNFITQLTDENQSCCPVCQRVFQTEAELQEVISDLRNKLQNVNRDIQRLKN
binding result (SEC): binds

B3: Rad50ΔCC K599C (domain or fragment, human, UniProt Q92878 585-766, looked up)
chain: B2 chain with K15C
binding result (cross-linking): binds

B4: Rad50-48 (S679R, P682R) Rad50HCC182 K599C (domain or fragment, human, UniProt Q92878 585-766, looked up)
chain: B1 chain with K15C, S95R, P98R
binding result (cross-linking): binds

B5: HsRad50HCC construct that contains the two interfaces (residues 635 to 730) (domain or fragment, human, UniProt Q92878 635-730, looked up)
chain: SQDFESDLDRLKEEIEKSSKQRAMLAGATAVYSQFITQLTDENQSCCPVCQRVFQTEAELQEVISDLQSKLRLAPDKLKSTESELKKKEKRRDEML
binding result (SAXS): binds

B6: HsRad50HCC182 K599C (domain or fragment, human, UniProt Q92878 585-766, looked up)
chain: B1 chain with K15C
binding result (cross-linking): binds

B7: HsRad50HCC182 S738C (domain or fragment, human, UniProt Q92878 585-766, looked up)
chain: B1 chain with S154C
binding result (cross-linking): binds

B8: 83-mer dsDNA (dsDNA)
DNA 1: TTGATAAGAGGTCATTTTTGCGGATGGCTTAGAGCTTAATTGCTGAATCTGGTGCTGTAGCTCAACATGTTTTAAATATGCAA
DNA 2: TTGCATATTTAAAACATGTTGAGCTACAGCACCAGATTCAGCAATTAAGCTCTAAGCCATCCGCAAAAATGACCTCTTATCAA
binding result [1]: binds | binding result [2]: binds
